Data as given in article PMC2172085.

Biological target: YFP-hDcp2 (human), Q8IU60
Test: FRET or BRET
Settings: remark: other sources report otherwise

B1: CFP-hDcp1a, Q9NPI6 1-582 (natural protein)
chain: MEALSRAGQEMSLAALKQHDPYITSIADLTGQVALYTFCPKANQWEKTDIEGTLFVYRRSASPYHGFTIVNRLNMHNLVEPVNKDLEFQLHEPFLLYRNASLSIYSIWFYDKNDCHRIAKLMADVVEEETRRSQQAARDKQSPSQANGCSDHRPIDILEMLSRAKDEYERNQMGDSNISSPGLQPSTQLSNLGSTETLEEMPSGSQDKSAPSGHKHLTVEELFGTSLPKEQPAVVGLDSEEMERLPGDASQKEPNSFLPFPFEQLGGAPQSETLGVPSAAHHSVQPEITTPVLITPASITQSNEKHAPTYTIPLSPVLSPTLPAEAPTAQVPPSLPRNSTMMQAVKTTPRQRSPLLNQPVPELSHASLIANQSPFRAPLNVTNTAGTSLPSVDLLQKLRLTPQHDQIQTQPLGKGAMVASFSPAAGQLATPESFIEPPSKTAAARVAASASLSNMVLAPLQSMQQNQDPEVFVQPKVLSSAIPVAGAPLVTATTTAVSSVLLAPSVFQQTVTRSSDLERKASSPSPLTIGTPESQRKPSIILSKSQLQDTLIHLIKNDSSFLSTLHEVYLQVLTKNKDNHNL
Binder B1 has an apparent FRET efficiency (one experiment, foci in the bleached region) of 17% and an average apparent FRET efficiency of 15%.
